± gives the uncertainty stated by the source.
assay: amyloid nucleation score (Sup35N fusion, yeast selection) (log enrichment); library NNK3; higher = more nucleation; inactive = no reads after selection
Summary of the method: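 Growth for 7 days at 30°C on medium lacking adenine and uracil followed a 24-hour induction with 100 μM copper sulfate of psi-negative yeast expressing peptides of 20 random codons fused to Sup35N. Input and output plasmid inserts were sequenced with Illumina, and sequences with under 100 input reads were excluded. Nucleation score is the DiMSum log enrichment of output over input reads, centred on the mode score of non-aggregating sequences.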

Amyloid nucleation score, -1.13 ± 2.4:
EGIGDVCCKTPEYRSFGWMR

Amyloid nucleation score, -0.464 ± 0.36:
EVTSYVVFSFLIFTSMFHCK

Amyloid nucleation score, 0.848 ± 0.19:
EVVLFKYVVL

Amyloid nucleation score, -0.383 ± 1.3:
ECGFKKR

Amyloid nucleation score, 0.561 ± 0.16:
EVKFYWKYKGV

Amyloid nucleation score, 0.999 ± 0.12:
DTYFTVCSLWGPV

Amyloid nucleation score, 0.078 ± 0.7:
EAGSPALRR

Amyloid nucleation score, 0.123 ± 0.27:
DVYISKDIRCCYLLKTFLPY

Amyloid nucleation score, 2.82 ± 0.077:
EHRLVDCDVWVR

Amyloid nucleation score, -1.34 ± 2.5:
FAFLWCLDWLNRKRIMSRVE

Amyloid nucleation score, 2.17 ± 0.061:
DRAAMFSNSVQSCICTWMNI

Amyloid nucleation score, 1.25 ± 0.089:
EMFYSVCFIYRIMFT

Amyloid nucleation score, 0.826 ± 0.22:
DLTLIWMGGAAM

Amyloid nucleation score, 0.961 ± 0.1:
DPSCGECFKA

Amyloid nucleation score, -0.079 ± 0.48:
ENYLKVCVASVCPWLLHVRS

Amyloid nucleation score, -0.261 ± 0.96:
DSPMKLSALSHM

Amyloid nucleation score, 0.754 ± 0.12:
DIYSDWLFIVLRHLVIRVLS

Amyloid nucleation score, 0.583 ± 0.24:
ESASSYFLY

Amyloid nucleation score, 1.76 ± 0.064:
ECTDFYGTGTFCFGSWRLSY

Amyloid nucleation score, 1.03 ± 0.2:
DLFCCCYTLS

Amyloid nucleation score, 2.6 ± 0.061:
ELFSVNKCDLALNTCLTVPG

Amyloid nucleation score, -0.01 ± 0.96:
DTSKNYAIYFGKLGDWSARS

Amyloid nucleation score, 0.674 ± 0.2:
ELLVVFEESIVINFLDANIW

Amyloid nucleation score, inactive:
DKGLGVLRHLNRWIVCTGHD
DLAFGMSFDWT
DLDGVPTHSVVERMKTWLDT
DLFLKLSCDSRI
DLHLLYKYILFAKLLV
DLLTFYFEPSASHSLLRPSG
DLMLWKNFSLFTRESRGFAN
DLQRLSNRKSKGLWSGCIGK
DLTTFQDMSTCTLWVTSGYT
DLYIYCFWLDMVITVCKRQK
DLYQPDS
DMGRCCSRKLRRRTPYVKGR
DMSHMIEICFVTNYTKGYVT
DNCFRKWT
DNDLQSTKSPLWGVHQANVR
DNFVY
DNKVFTLSNQA
DPGHRGLTDFYSMFRL
DPVIYRCSLVLLYSERSLPY
DQVAYRGKSVYSYKCKTRWG
DRWVQAGSHTFTFLWDCERA
DSISISY
DSLILWHGDANCSRLGYRGH
DSNLRLYALTRCHKALHVMS
DSNVRSFVSMLSVN
DSPTE
DSRLE
DSSKVGFSALVNVSTIA
DSSLIAGPHVVCSWGLKNFS
DSYCYVWYKYSNVNVGD
DTDFIFVNIA
DTVRHLISYRGLGRLHRHTM
DVLRVFLFSSFIILCVGCTY
DVLWSGSYSSRLPGSIRDCE
DVNVALIHSDL
DVPGIGCEGKALRRLGFLLR
DVRKRSFIYVCNRSLVVPFR
DVTRTCRYGEVYDWTIKIRP
DWNISLNLQDIGRRSLPIFA
DYKKVGDSLFTVFVFRFINV
DYMRFTYRIMNCLSDCYITN
DYQTHLCSEGLALLMRKGSR
DYVIVCAMEKLNRTVLWAQG
DYVRKWS
EADPYIPKSVFGVGFNGHVV
EAGSVSYWFVATRPLKRACP
EALTLTARR
EATWMSLRYV
EAVKWPHMILPHCTHMWIYW
ECAYWMILLGLDYNGHPNRP
ECENMHDTKDLGLTDGVYII
ECRYRTRR
ECYTSCVMIYIIHCYKNLRL
EFGPVTPGSEPQALLCTRRL
EFGWQL
EFKIALRRPINERAESLVTR
EFKQSSWY
EFRIKRNR
EFVFECLYGTLLGRALMLRP
EFWLISFQSQLSFYCDFRYD
EGDYECGNTWQNGGSTSEDP
EGFWMNAPGGRISYSINWIA
EHYFSTSIVGCGFFIWWCWG
EICWKLIGRMRC
EIKSDICFGFVYTTS
EIRTRPKRSVVGSRVSMGVS
EIVRRSSVISCHRT
EIVVYFEFLCYFVLEVLKSL
EKDNKLLVICMLV
EKVSYFSNNVVLIVVINRVC
ELGPYLNSLVAHFSRLY
ELIDKLVT
ELIWAEGYRKSCKLGPVIS
ELLCSYTYKIGFQWFC
ELPLSSCNRCGECYGLAIVA
ELRQFSP
ELSFPL
ELSTWLAYYVRLGYWCLIMM
ELSYDRSKYSINSLWLGIPI
ELVVLYLYRRASSGWS
EMLFPSRICLCIHDVILPRV
EMLYTLIIVYLVNMYFCTQS
ENALRLRQVGQILGLNCRIV
ENERGKKMSLGYGLELAGTG
ENSEW
ENVLVVRMDRVLY
EPRRLRITCEYTVNRRLSDE
EPSGNM
EQLKTRNRKVWV
ERQFMFYKVTVVIPTSHLCS
ERSLFAYMYNNGR
ERSQKWVNF
ERVRRTV
ESMAFLRSSSLHKFVWTMYR
ESMLIS
ESMSHRGAPGRERVLRSNM
ESQISEN
ESSFSGLYYDSAM
ETSVTAHHLGIGVLLRFQQ
EVGYKTVFPVGIMNDIVMWM
EVKDAWIMSYSLNYWQRLYM
EVSSTDL
EVVAAYHPATDTSDRERKAL
EVYYPDVNLLEPGAVKLGRH
EWCSMYILSC
EWFSMIVSHFNI
EWISLQVKNLTVSTVMLCLE
EWKVLLPNLLYPSYYAQNR
EYESMI
EYHDALEYVVGDKAIFWSGD
FADYLMKPCRMCLLRDPVYS
FAFAEERADLWSN
FAGCLGHPLERYVHLAWV
FAHEVLYSANT
FAILNFGMSSIIFVCLTCAN
FALCFKRQIGRVSRVVCHVY
FAMETLNSSTFRCYHQFYGF
FANFSILS
FASRIWSSTITSCHLLSGSL
FASSDC
FAYQFRLVDTSLSDF
FCDGPGTKY
FCEGYFWCVI
FCFYICGLGFY
FCGAYLVVIAEFL
FCHLLVMLFYKGPKVFCIVM
FCHVRMLAISTIYGSSVEVF
FCIEPR
FCQSFWLLQLARMPCYVESQ

Amyloid nucleation score, 0.209 ± 0.38:
DSRAGRGMSFLRFNRRSVDE

Amyloid nucleation score, 1.36 ± 0.13:
ELNMAVDAVYCTGSVHKIVF

Amyloid nucleation score, 0.358 ± 0.36:
EKFNCNVFIANWAK

Amyloid nucleation score, 1.24 ± 0.12:
EDFPRALVVRSYQWIYIQNV

Amyloid nucleation score, -0.353 ± 1.2:
FAYVLFATFS

Amyloid nucleation score, 1.11 ± 0.15:
EAHGIQLMMGLFAFR

Amyloid nucleation score, 0.115 ± 1:
DLIWWRGAQAVNTLNSGSKR

Amyloid nucleation score, 1.15 ± 0.12:
DLGFWPYFISIMACCWDQKG

Amyloid nucleation score, -0.2 ± 0.96:
EQYRSTTGLESL

Amyloid nucleation score, 0.422 ± 0.21:
EPGDRQARKSFRLSFWAQEV

— the supplement of paper PMC12042874
